The emibetuzumab library of Makowski et al. (2022)

B1: VH:VL chains; a variant is named by its letters at X, in order (parent)
chain 1: QVQLVQSGAEVKKPGASVKVSCKASGYTFTDYXMHWVRQAPGQGLEWMGXVNPNXXXTTYNQKFEGRVTMTTDTSTSTAYMELRSLRSDDTAVYYCARXNXLDXWGQGTTVTVSS
chain 2: DIQMTQSPSSLSASVGDRVTITCSVSSSVSSIYLHWYQQKPGKAPKLLIYSTSNLASGVPSRFSGSGSGTDFTLTISSLQPEDFATYYCQVYSGYPLTFGGGTKVEIK

Variants of: B1
Experiment: yeast display scFab, FACS + sequencing
Outline: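 For the non-specific binding call, a heavy-chain CDR mutant scFab library on the yeast surface was FACS-sorted and samples from two replicates were deep sequenced. Cells were labelled with anti-Myc and either biotinylated ovalbumin (260 μg/mL in PBSB, 3 h, room temperature) or soluble membrane proteins (130 μg/mL, 20 min on ice), with gates on the top 25% and bottom 10% of binders. With membrane protein and ovalbumin samples pooled, a sequence in ≥3 of 4 positive samples and no negatives was scored positive, and the converse rule scored negatives.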

Variant	non-specific binding call
YTGGADAV	no binding
VTGTGDGA	no binding
VTGTGDGV	no binding
YTGGDDGF	no binding
STEEGDWV	no binding
YTGEGDGV	no binding
VTEEGDWV	no binding
VTERSALD	binds
FTGRAAAV	no binding
VTGEDSLA	no binding
VTGEDSLV	no binding
VTGEDSLD	no binding
DTGTGSGA	no binding
VTEGDDVF	no binding
VTEGDAGA	no binding
VTEGDAGD	no binding
FTGGAAGD	no binding
YTERGFGV	no binding
FTGRAYGF	binds
DTGTGDSA	no binding
STGTGSGA	no binding
DTGGGDLA	no binding
STGRAALA	no binding
ATGEDDVY	no binding
YTGTGAVF	no binding

Variant	non-specific binding call
YTERGDVD	no binding
YTERGDVY	no binding
FTEEGAVD	no binding
STGGGDGV	no binding
DTGGDDWF	no binding
FTEEGAGD	no binding
VTGRGDLA	no binding
ATGGDSGD	no binding
VTGGGASF	no binding
STGTGALA	no binding
DTGKDAGD	no binding
VTERDDAV	no binding
DTGGDAGV	no binding
YTGRAALA	no binding
VTGEDDAA	no binding
VTGEDDAV	no binding
DTGANDWV	no binding
ATGEADAS	no binding
VTGTGDWF	no binding
VTGTGDWV	no binding
FTGRGAVA	binds
DTGGDDGF	no binding
DTGRGSGV	no binding
YTGEDAVA	no binding
VTEEGSWV	no binding

Variant	non-specific binding call
VTGRGDVA	no binding
VTGRGDVF	no binding
STGGNDAD	no binding
YTGRGSAA	binds
VTGRAAWV	no binding
VTGGDSWF	no binding
YTERAAWA	no binding
DTERGSLV	no binding
STGGDDGF	no binding
STGGDDGA	no binding
FTETGSVD	no binding
VTEEGSSV	no binding
FTGRGAGV	binds
YTEEAAVD	no binding
ATGRAAGD	no binding
FTGEDDVY	no binding
DTGGGAGA	no binding
FTGGDALA	no binding
VTGANDWV	no binding
VTGGSDVY	no binding
FTETGFGA	binds
VTGEDAVV	no binding
VTEGDSGV	no binding
ATGTGSGA	no binding
ATGGAALD	no binding

Variant	non-specific binding call
VTGTGAAV	no binding
VTGTGAAD	no binding
VTEENDGY	no binding
VTETGSLV	no binding
ATGANAGD	no binding
VTERGSLD	no binding
FTEGDSGY	no binding
VTEGGDVY	no binding
VTEGGDVA	no binding
STGRADWA	no binding
YTGGNDAD	no binding
FTGRGSAD	binds
VTGEDDVV	no binding
VTGEDDVA	no binding
VTGEDDVD	no binding
YTGGDSVD	no binding
YTGGDSVA	no binding
STEGGSVY	no binding
VTGGGDGS	no binding
VTGGGDGA	no binding
DTGEADAS	no binding
VTGESDWY	no binding
DTGGGDAY	no binding
DTGGGDAV	no binding
DTGGGDAA	no binding

Variant	non-specific binding call
VTGTGAVY	no binding
VTGTGAVV	no binding
DTEEGDWV	no binding
DTGTGDWV	no binding
DTGEDDVY	no binding
YTGGDDVD	no binding
YTGGDDVY	no binding
YTGGDDVV	no binding
YTGKSVAV	binds
ATGGDDWF	no binding
STGGDDVY	no binding
YTGRGSLD	binds
VTGGDDSA	no binding
YTEGDDGA	no binding
YTEGDDGV	no binding
YTEGDDGD	no binding
VTGGDALA	no binding
STGEDDVY	no binding
DTGTGDAA	no binding
VTGGDSGD	no binding
YTGEGSWV	no binding
VTGEDSGV	no binding
VTGEGALV	no binding
ATGGAAGD	no binding
DTGTGASD	no binding

Variant	non-specific binding call
YTGEDDVY	no binding
ATGGGYVA	binds
VTGTGSSD	no binding
VTGTGSSA	no binding
ATGEGDWS	no binding
VTGGDDGY	no binding
VTGGDDGA	no binding
ATGEGDGV	no binding
VTGGDSSA	no binding
VTGGDSSD	no binding
ATGRADWA	no binding
VTGESAAV	no binding
VTGTGAGV	no binding
FTGEAAGD	no binding
STEGDAGA	no binding
FTGTGSGA	no binding
FTGGASGV chain 1 V111I	no binding
DTGTGDGV	no binding
VTGGDSVD	no binding
ATGANAAV	no binding
DTERDDAV	no binding
VTGGDSAS	no binding
ATGRASLD	no binding
YTETGDSV	no binding
VTETGDSV	no binding

Variant	non-specific binding call
DTGTGDVF	no binding
DTGTGDVA	no binding
ATGRADVY	no binding
VTGKGDGV	no binding
YTGEADAS	no binding
FTGEADAS	no binding
YTERNFGV	binds
DTGGSASA	no binding
DTGTGALV	no binding
VTGEADAS	no binding
VTEGGDAA	no binding
VTGTGDAD	no binding
VTGTGDAV	no binding
DTEGDAGD	no binding
DTGRADWA	no binding
VTEGGALA	no binding
DTGTGAGD	no binding
DTGTGAGV	no binding
YTEGDFAV	no binding
YTERGDAV	no binding
YTEETDGF	binds
VTGGDYAV	no binding
YTGTGSGA	no binding
DTEGGSAS	no binding
VTEGGSVD	binds

Variant	non-specific binding call
YTGGGDGV	no binding
YTEEGDWV	no binding
STGKGSGV	no binding
VTGEDSSD	no binding
VTGEDDWY	no binding
VTGEDDWV	no binding
VTGEDDWD	no binding
YTEKGVGV	binds
YTGATAGA	binds
ATGGDDGF	no binding
YTEGDDWY	no binding
DTEEGDVA	no binding
VTGRAALA	no binding
VTGEDAGD	no binding
VTGEDAGA	no binding
VTGEDAGS	no binding
VTGEDDGD	no binding
VTGEDDGS	no binding
VTGGDSLV	no binding
VTGTASSV	no binding
YTGRGSGV	binds
YTEKTFSD	binds
VTGGDDVY	no binding
ATGANSLD	no binding
VTGTGSGD	no binding

Variant	non-specific binding call
VTGTGSGF	no binding
VTGTGDVY	no binding
VTGTGDVV	no binding
VTGGDDWF	no binding
VTGGDDWY	no binding
VTGGDDWV	no binding
STGEADAS	no binding
FTGRGAAA	binds
VTGTGSLD	no binding
VTGTGSLV	no binding
YTGGDDWV	no binding
FTEEGDGV	no binding
FTEEGDGA	no binding
FTETGAGD	no binding
ATGRADGV	no binding
DTGTGSSA	no binding
STEASYLS	no binding
DTGGGAWD	no binding
